Test results as given in patent US20110262448A1 (Bristol-Myers Squibb, published 2011).
Where a chain is given by its changes, count along the chain named.

B1: human monoclonal antibody 3C10 (antibody, IgG1, V domains shown)
VH: QVYLVESGGGVVQPGRSLRLSCAASGITFSIYGMHWVRQAPGKGLEWVAVIWYDGSHEYYADSVKGRFTISRDNSKNTLYLLMNSLRAEDTAVYYCARDGDYYDSGSPLDYWGQGTLVTVSS
VL: EIVLTQSPATLSLSPGERATLSCRASQSVSSYLAWYQQKPGQAPRLLIYDASNRATGIPARFSGSGSGTDFTLTISSLEPEDFAVYYCQQRSNWPLTFGGGTKVEIK
notes: hybridoma-derived purified antibody; also called 3C10 mAb; 1382.210.3C10.1.6
B2: human monoclonal antibody 6A4 (antibody, IgG1, V domains shown)
VH: B1 VH with Y3H, A23V, S30R, I51L, L82Q, V93I
VL: B1 VL
notes: also called 6A4 mAb; 1382.210.6A4.1.6
B3: human monoclonal antibody 7B1 (antibody, V domains shown)
VH: EVHLVESGGGLVQPGGSLRLSCAASGFTFSRYWMSWVRQAQGKGLEWVASIKQAGSEKTYVDSVKGRFTISRDNAKNSLSLQMNSLRAEDTAVYYCAREGAYYYDSASYYPYYYYYSMDVWGQGTTVTVSS
VL: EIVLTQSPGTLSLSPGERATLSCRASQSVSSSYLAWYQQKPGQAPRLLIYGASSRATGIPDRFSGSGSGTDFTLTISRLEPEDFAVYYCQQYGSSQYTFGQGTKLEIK
notes: also called 7B1 mAb; 1382.210.7B1.2.18

What was measured:
[1] = molecular target: T1, cell-surface human mesothelin (naturally expressed on OVCAR3, NCI-H226, CFPAC-1 and KB cells and on human … (human, UniProt Q13421 296-598)); assay: flow cytometry on KB cells
T1 construct: whole, on cells; Endogenously expressed on the cell lines; also called cell surface mesothelin
Procedure: (§1) To test the ability of the antibodies to bind to cell surface mesothelin protein, the antibodies were incubated with four different mesothelin-expressing cells: OVCAR3 (ATCC Designation HTB-161, a human ovarian cancer cell line), NCI-H226 (ATCC Designation CRL-5826, a human lung-derived mesothelioma), CFPAC-1 (ATCC Designation CRL-1918, a human pancreatic cancer cell line), and KB (ATCC Designation CCL-17, a human oral carcinoma cell line). For the flow cytometry studies, the 3C10, 6A4 and 7B1 monoclonal antibodies were diluted with cold 1×PBS+0.1% BSA to 40 μg/mL. For the binding reaction, 50 μl of diluted antibody solution was added to a 50 μl cell suspension containing 4×10⁵ cells and the mixture was incubated on ice for 30-60 minutes. The cells were then washed three times with 1×PBS+0.1% BSA. A 1:50 dilution of R-phycoerythrin-labeled goat anti-human IgG Fγ F(ab)₂ fragment (Jackson ImmunoResearch Labs, Cat. #109-116-098) was added and the mixture was incubated on ice for 1 hour, followed by washing twice with cold 1×PBS+0.1% BSA. After the final wash, 200 μl of cold 1×PBS+0.1% BSA was added to each solution and analysis of antibody binding was carried out by FACS.

[2] = molecular target: T1, cell-surface human mesothelin …; assay: flow cytometry on OVCAR3 cells
Procedure: as §1

[3] = molecular target: T1, cell-surface human mesothelin …; assay: flow cytometry on CFPAC-1 cells
Procedure: as §1

[4] = molecular target: T1, cell-surface human mesothelin …; assay: flow cytometry on NCI-H226 cells
Procedure: as §1

[5] = molecular target: T2, hu mesothelin-his fusion protein (human, UniProt Q13421 296-598, limits assumed); assay: BIAcore SPR, antibody captured on protein G chip, mesothelin His-fusion protein injected
T2 construct: domain: 40 kD portion of mesothelin; Soluble fusion protein secreted by transfected CHO cells; also called recombinant soluble mesothelin his-fusion protein; recombinant human mesothelin His-fusion protein; not shown: His tag at the C-terminus
Procedure: The binding of the 3C10, 6A4 and 7B1 antibodies to recombinant soluble mesothelin his-fusion protein was examined by BIAcore™ using a capture method. The 3C10, 6A4 and 7B1 antibodies each were separately captured on a protein G (Pierce, Rockford, Ill.) coated CM5 chip at high density (4000 RUs). The coating was performed based on the standard immobilization procedure recommended by the manufacturer. After the 3C10, 6A4 or 7B1 purified antibody was captured on protein G, a concentration series of recombinant human mesothelin His-fusion protein (450, 225, 112.5, 56, and 28 nM) was injected over the captured antibody for 2 minutes at a flow rate of […]. The antigen was allowed to dissociate for 8 minutes. Isotype controls were run on the chip, and the data used to subtract non-specific binding. All the analyses were carried out on a Biacore 2000 or 3000 surface plasmon resonance instrument, using BIAcore Control software v 4.01. Data was analyzed using BiaEvaluation v4.01 software.

[6] = molecular target: mesothelin on CHO-mesothelin cells (CHO cells transfected to express the 40 kD membrane-associated portion of … (UniProt Q13421 296-598, limits assumed)); assay: cell-based or functional assay
Sequence of mesothelin on CHO-mesothelin cells (CHO cells transfected to express the 40 kD membrane-associated portion of … (Q13421 other isoform, or with tags, fused parts or gaps limits assumed): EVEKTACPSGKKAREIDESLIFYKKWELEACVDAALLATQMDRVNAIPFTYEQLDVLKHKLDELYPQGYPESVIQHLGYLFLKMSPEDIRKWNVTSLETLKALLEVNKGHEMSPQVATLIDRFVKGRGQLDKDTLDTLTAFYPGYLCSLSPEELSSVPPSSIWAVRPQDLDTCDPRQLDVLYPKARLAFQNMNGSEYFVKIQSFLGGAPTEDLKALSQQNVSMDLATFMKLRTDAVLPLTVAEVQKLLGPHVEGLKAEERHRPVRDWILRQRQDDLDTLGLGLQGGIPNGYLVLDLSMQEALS

T2 sequence (Q13421 other isoform, or with tags, fused parts or gaps limits assumed): as above
T1 sequence (Q13421 other isoform, or with tags, fused parts or gaps limits assumed): as above

Row | Binder | EC50 [1] [nM] | EC50 [2] [nM] | EC50 [3] [nM] | EC50 [4] [nM] | Kd [5] [nM] | koff [5] [s⁻¹] | kon [5] [M⁻¹ s⁻¹] | Antibody Dependent Cellular Cytotoxicity, EC50 (nM), CHO-mesothelin target cells [6] [nM]
1 | B1 | 0.144 | 0.213 | 0.193 | 0.197 | 5.8 | 0.000362 | 63000 | 
2 | B2 | 0.181 | 0.17 | 0.193 | 0.156 | 5.9 | 0.000377 | 63900 | 63.1
3 | B3 | 0.0679 | 0.11 | 0.0643 | 0.664 | 2.4 | 0.000171 | 71500 | 
